Data on two substances can be found in article PMC12208167.

Assay [1] has as its target murine neonatal Fc receptor (FcRn) (mouse | not stated) (UniProt Q61559). Nature of the assay: SPR. (In SPR one partner is held on a chip, and binding of the other changes the refractive index at the surface.)
Assay [2] deals with human neonatal Fc receptor (FcRn) (human) (UniProt P55899). The assay can be described thus: SPR.
Assay [3] deals with murine neonatal Fc receptor (FcRn) (mouse | not stated) (UniProt Q61559). Nature of the assay: ELISA. (In an ELISA, binding on a coated surface is turned into a signal by an enzyme label.)
Assay [4] addresses human neonatal Fc receptor (FcRn) (human) (UniProt P55899). Nature of the assay: ELISA.

Sequence of UniProt P55899 (P55899 27-297, chain 1 of 2): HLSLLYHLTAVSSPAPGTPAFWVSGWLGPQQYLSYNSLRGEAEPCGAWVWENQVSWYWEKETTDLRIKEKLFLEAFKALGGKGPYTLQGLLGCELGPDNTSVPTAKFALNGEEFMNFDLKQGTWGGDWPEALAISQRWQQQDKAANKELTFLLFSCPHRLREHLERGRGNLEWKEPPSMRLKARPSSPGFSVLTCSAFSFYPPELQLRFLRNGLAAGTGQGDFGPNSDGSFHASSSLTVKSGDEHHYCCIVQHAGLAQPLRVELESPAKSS
Sequence of UniProt P55899 (P61769 21-119, chain 2 of 2, further chain): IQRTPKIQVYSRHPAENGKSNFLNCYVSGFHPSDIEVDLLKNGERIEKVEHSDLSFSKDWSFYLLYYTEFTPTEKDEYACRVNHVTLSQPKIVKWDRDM
Sequence of UniProt Q61559 (Q61559 22-365, chain 1 of 2): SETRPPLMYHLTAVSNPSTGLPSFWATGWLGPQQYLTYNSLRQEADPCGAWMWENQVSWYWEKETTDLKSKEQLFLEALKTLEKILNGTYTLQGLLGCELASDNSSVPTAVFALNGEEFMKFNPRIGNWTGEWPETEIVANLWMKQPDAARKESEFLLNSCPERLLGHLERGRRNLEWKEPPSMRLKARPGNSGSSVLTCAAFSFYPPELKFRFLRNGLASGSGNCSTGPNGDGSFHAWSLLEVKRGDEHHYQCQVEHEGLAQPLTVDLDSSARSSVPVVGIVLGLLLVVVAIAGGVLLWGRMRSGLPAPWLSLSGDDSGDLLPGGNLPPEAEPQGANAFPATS
Sequence of UniProt Q61559 (P01887 21-119, chain 2 of 2, further chain): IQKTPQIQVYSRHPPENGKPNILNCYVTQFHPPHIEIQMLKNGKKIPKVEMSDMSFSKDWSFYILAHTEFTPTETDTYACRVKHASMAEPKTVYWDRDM

For orientation: Kd means a measure of binding affinity in units of concentration. As for “m66.6, human anti-MPER HIV monoclonal IgG1 (antibody)”, the figures for the Kd in assay [1] and in assay [2] were 0.2 to 0.4 nM and 1.3 to 2.8 nM, respectively.
The EC50 is the midpoint of the concentration-response curve. For the substance “B domain-deleted (BDD) FVIII (ReFacto AF) (natural protein)”, the EC50 in assay [3] came out at 130 nM; in assay [4] it was 1140 nM.
